In patent US20230295324A1:
pEC50: −log10 of the molar value.

Columns and labels:
[1] = molecular target: human OX40 on cells (CHO-K1/hu OX40) (human) (UniProt P43489); experiment: cell-based or functional assay
[2] = molecular target: human OX40 on cells (CHO-K1/hu OX40) (human) (UniProt P43489); experiment: FACS, CHO-K1/hu OX40 cells

human OX40 on cells (CHO-K1/hu OX40) (human), sequence (P43489 29-277): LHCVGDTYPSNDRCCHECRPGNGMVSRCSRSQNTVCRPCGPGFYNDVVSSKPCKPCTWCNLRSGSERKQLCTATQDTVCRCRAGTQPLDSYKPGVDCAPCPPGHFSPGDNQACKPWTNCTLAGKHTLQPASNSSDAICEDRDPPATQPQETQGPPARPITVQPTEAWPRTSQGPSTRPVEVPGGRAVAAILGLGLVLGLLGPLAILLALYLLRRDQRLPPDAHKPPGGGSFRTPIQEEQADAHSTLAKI

Maximum fluorescence signal value, HEK293/OX40/NF-kb luciferase reporter [1]: 2530 luminescence
pEC50 [2]: 7.15
Maximum MFI [2]: 6900 MFI
Substance: hIgG1 (antibody)
